Measurements: the supplement of paper PMC9112550, “Optimization of the antimicrobial peptide Bac7 by deep mutational scanning” (BMC Biology, 2022)

tested on: Escherichia coli TOP10; experiment: shrunken log2 fold change of peptide-encoding DNA abundance (4.5 h post-induction vs induction); higher = less antimicrobial activity (less host growth inhibition); conditions: time post-induction: 4.5 h; library: site-saturation at positions 5, 18, 19, 20
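Further: peptides expressed intracellularly from a pBAD plasmid library in pooled LB shake-flask culture, induced with 0.3% L-arabinose, DNA abundance read by NGS, three biological replicates, DESeq2 with apeglm shrinkage.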

| Sequence | shrunken log2 fold change |
| --- | --- |
| RRIRYRPPRLPRPRPRPFWCPRP | -0.208 |
| RRIRQRPPRLPRPRPRPICNPRP | -0.211 |
| RRIRLRPPRLPRPRPRPTLWPRP | 0.284 |
| RRIRDRPPRLPRPRPRPEFDPRP | 0.375 |
| RRIRPRPPRLPRPRPRPWEQPRP | 0.201 |
| RRIRWRPPRLPRPRPRPFADPRP | 0.737 |
| RRIRNRPPRLPRPRPRPVFEPRP | 0.07 |
| RRIRCRPPRLPRPRPRPHCFPRP | -0.429 |
| RRIRTRPPRLPRPRPRPMYWPRP | -0.131 |
| RRIRVRPPRLPRPRPRPAWQPRP | -0.00433 |
| RRIRARPPRLPRPRPRPSAIPRP | 0.173 |
| RRIRFRPPRLPRPRPRPEGCPRP | 0.013 |
| RRIRSRPPRLPRPRPRPSTAPRP | -0.0171 |
| RRIRERPPRLPRPRPRPMTAPRP | -0.0417 |
| RRIRPRPPRLPRPRPRPQYWPRP | -0.0415 |
| RRIRGRPPRLPRPRPRPIGPPRP | 0.5 |
| RRIRKRPPRLPRPRPRPNIVPRP | 0.135 |
| RRIRMRPPRLPRPRPRPDLNPRP | 0.178 |
| RRIRKRPPRLPRPRPRPKQVPRP | -0.176 |
| RRIRSRPPRLPRPRPRPFLCPRP | -0.634 |
| RRIRPRPPRLPRPRPRPHIQPRP | -0.312 |
| RRIRTRPPRLPRPRPRPDIFPRP | -0.234 |

| Sequence | shrunken log2 fold change |
| --- | --- |
| RRIRCRPPRLPRPRPRPRWPPRP | 0.661 |
| RRIRWRPPRLPRPRPRPGDQPRP | 0.175 |
| RRIRDRPPRLPRPRPRPGELPRP | 0.684 |
| RRIRCRPPRLPRPRPRPIQVPRP | -0.191 |
| RRIRQRPPRLPRPRPRPVEVPRP | -0.0922 |
| RRIRKRPPRLPRPRPRPICSPRP | -9.46e-05 |
| RRIRWRPPRLPRPRPRPTMLPRP | 0.101 |
| RRIRGRPPRLPRPRPRPPWQPRP | 0.691 |
| RRIRERPPRLPRPRPRPFWHPRP | -0.0333 |
| RRIRQRPPRLPRPRPRPYPRPRP | -0.258 |
| RRIRFRPPRLPRPRPRPTPYPRP | 0.0647 |
| RRIRARPPRLPRPRPRPYLRPRP | -0.228 |
| RRIRGRPPRLPRPRPRPFSEPRP | 0.144 |
| RRIRYRPPRLPRPRPRPEICPRP | 0.0682 |
| RRIRWRPPRLPRPRPRPMYQPRP | -0.0254 |
| RRIRSRPPRLPRPRPRPRGTPRP | 0.407 |
| RRIRTRPPRLPRPRPRPTLAPRP | 0.54 |
| RRIRDRPPRLPRPRPRPTDIPRP | -0.231 |
| RRIRTRPPRLPRPRPRPPISPRP | 0.075 |
| RRIRRRPPRLPRPRPRPTDHPRP | -0.235 |
| RRIRPRPPRLPRPRPRPFSFPRP | -0.0166 |
| RRIRRRPPRLPRPRPRPGECPRP | 0.0146 |

| Sequence | shrunken log2 fold change |
| --- | --- |
| RRIRTRPPRLPRPRPRPVLQPRP | 4.38 |
| RRIRPRPPRLPRPRPRPAQKPRP | 0.273 |
| RRIRWRPPRLPRPRPRPVCCPRP | 0.469 |
| RRIRHRPPRLPRPRPRPNLWPRP | 0.173 |
| RRIRWRPPRLPRPRPRPMNFPRP | -0.0285 |
| RRIRKRPPRLPRPRPRPTCHPRP | 0.169 |
| RRIRARPPRLPRPRPRPTITPRP | 0.187 |
| RRIRTRPPRLPRPRPRPNHQPRP | -0.35 |
| RRIRIRPPRLPRPRPRPLTHPRP | -0.358 |
| RRIRHRPPRLPRPRPRPKWTPRP | 0.0551 |
| RRIRKRPPRLPRPRPRPFMNPRP | -0.0366 |
| RRIRFRPPRLPRPRPRPWCGPRP | -0.142 |
| RRIRPRPPRLPRPRPRPIENPRP | -0.414 |
| RRIRFRPPRLPRPRPRPLVCPRP | -0.365 |
| RRIRARPPRLPRPRPRPFFRPRP | 0.126 |
| RRIRTRPPRLPRPRPRPVEGPRP | -0.194 |
| RRIRFRPPRLPRPRPRPNNHPRP | -0.571 |
| RRIRSRPPRLPRPRPRPGYTPRP | -0.129 |
| RRIRSRPPRLPRPRPRPADDPRP | 0.479 |
| RRIRMRPPRLPRPRPRPIVMPRP | 0.163 |
| RRIRHRPPRLPRPRPRPWVPPRP | -0.408 |
| RRIRVRPPRLPRPRPRPFLRPRP | -0.563 |

| Sequence | shrunken log2 fold change |
| --- | --- |
| RRIRTRPPRLPRPRPRPMVIPRP | -0.0894 |
| RRIRHRPPRLPRPRPRPMMVPRP | -0.0274 |
| RRIRRRPPRLPRPRPRPPNIPRP | -0.0641 |
| RRIRWRPPRLPRPRPRPIKGPRP | -0.197 |
| RRIRLRPPRLPRPRPRPAICPRP | 0.207 |
| RRIRQRPPRLPRPRPRPHHTPRP | -0.0489 |
| RRIRVRPPRLPRPRPRPFRSPRP | -0.267 |
| RRIRHRPPRLPRPRPRPHYCPRP | -0.0453 |
| RRIRNRPPRLPRPRPRPYVFPRP | -0.7 |
| RRIRQRPPRLPRPRPRPLTMPRP | 0.00947 |
| RRIRWRPPRLPRPRPRPGMPPRP | 0.294 |
| RRIRTRPPRLPRPRPRPPTAPRP | -0.0521 |
| RRIRGRPPRLPRPRPRPSSGPRP | 0.0321 |
| RRIRDRPPRLPRPRPRPRTNPRP | -0.179 |
| RRIRRRPPRLPRPRPRPHWHPRP | 0.0772 |
| RRIRARPPRLPRPRPRPDTHPRP | 0.0877 |
| RRIRSRPPRLPRPRPRPTWHPRP | 0.179 |
| RRIRKRPPRLPRPRPRPTKNPRP | 0.392 |
| RRIRYRPPRLPRPRPRPAWEPRP | 1.86 |
| RRIRYRPPRLPRPRPRPNMQPRP | -0.594 |
| RRIRCRPPRLPRPRPRPTGIPRP | 0.287 |
| RRIRQRPPRLPRPRPRPIINPRP | -0.235 |

| Sequence | shrunken log2 fold change |
| --- | --- |
| RRIRFRPPRLPRPRPRPCAQPRP | -0.077 |
| RRIRFRPPRLPRPRPRPPSNPRP | 0.324 |
| RRIRERPPRLPRPRPRPFSWPRP | 0.0616 |
| RRIRPRPPRLPRPRPRPKKDPRP | -0.151 |
| RRIRLRPPRLPRPRPRPLYFPRP | -0.646 |
| RRIRWRPPRLPRPRPRPYNKPRP | -1.34 |
| RRIRARPPRLPRPRPRPEHSPRP | 0.244 |
| RRIRHRPPRLPRPRPRPKCGPRP | 0.0031 |
| RRIRARPPRLPRPRPRPFVVPRP | -0.312 |
| RRIRHRPPRLPRPRPRPMAVPRP | 0.159 |
| RRIRWRPPRLPRPRPRPSTSPRP | -0.302 |
| RRIRHRPPRLPRPRPRPMTNPRP | -0.19 |
| RRIRYRPPRLPRPRPRPCNTPRP | -0.425 |
| RRIRLRPPRLPRPRPRPSVWPRP | 0.158 |
| RRIRCRPPRLPRPRPRPIMCPRP | 0.0272 |
| RRIRWRPPRLPRPRPRPLHYPRP | -0.369 |
| RRIRDRPPRLPRPRPRPAQKPRP | 0.0225 |
| RRIRGRPPRLPRPRPRPQLHPRP | 0.231 |
| RRIRARPPRLPRPRPRPTHPPRP | 0.586 |
| RRIRDRPPRLPRPRPRPEKSPRP | -0.00264 |
| RRIRVRPPRLPRPRPRPNRGPRP | 0.108 |
